The target in the test is T1, recombinant human CTLA-4-Fc fusion protein (R&D Systems) (human, UniProt P16410 37-162).
T1 construct: range 37-162; also called fusion protein CTLA-4/Fv; recombinant protein CTLA-4; not shown: IgG constant region (Fc) of the bought fusion protein
T1 sequence (looked up): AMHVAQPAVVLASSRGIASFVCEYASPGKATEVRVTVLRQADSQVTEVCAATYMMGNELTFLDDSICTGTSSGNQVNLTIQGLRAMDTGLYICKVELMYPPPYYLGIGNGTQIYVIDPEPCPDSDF
Briefly: phage display panning on coated CTLA-4/Fc, then ELISA of purified scFv on coated recombinant CTLA-4.

B1: human anti-CTLA-4 single-chain variable region (scFv) antibody (scFv)
scFv: QVQLVQSGGGVVQPGRSLRLSCAASGFTFSSYGMHWVRQAPGKGLEWVAVIWYDGSRQYYADSVKGRFTISRDDSKNTMYLQMNSLRAEDTAVYYCARGGFWGAFDIWGQGTMVTVSSGSGGGGSDVVMTQSPGTLSLSPGEGATLSCRASQHVISSYLAWYQQKPGQAPRLLVYGASSRDTGVSDRFTGSGSGTDFTLTISRLEPEDSAVYFCQQYGTSPWTFGQGTKLEIKR
notes: also called anti-CTLA-4 scFv; CTLA-4scFv
As for B1, the binding result is “binds”.

The values above are taken from US20190048080A1 (SHANGHAI KANDA BIOTECHNOLOGY, published 2019).
